In publication doi:10.1101/2025.01.09.632221 (bioRxiv, 2025):

Assays:
[1] = target: sHcp-His6 (Bacteroides fragilis NCTC9343); test: SDS-PAGE
[2] = target: sHcp-His6 (Bacteroides fragilis NCTC9343); test: SEC
crystal structure = target: the molecule itself; test: crystal structure
Hcp2-His6 = target: T1, Hcp2-His6 (Bacteroides fragilis NCTC9343, UniProt A0A380Z0E1 1-135); test: pull-down
T1 sequence (looked up): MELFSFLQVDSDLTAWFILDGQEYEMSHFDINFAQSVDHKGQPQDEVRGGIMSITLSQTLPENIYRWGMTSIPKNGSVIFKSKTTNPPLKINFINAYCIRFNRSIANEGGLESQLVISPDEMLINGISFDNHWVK

sHcp-His6 (natural protein)
stoichiometry N [1]: 3
stoichiometry N [2]: 6

B1: C-terminal 6His-tagged Se-Met sHcp protein (natural protein, Bacteroides fragilis NCTC9343)
chain: MAFRATLSFAGKEFDVLDCTYSLKRDVDSKGRPSSNIYGGQIRLHVESTDDTSILENMTNQFKPHSGSIVFKKGDEEAKMKELTWENGYITEFTENIDIVGSQPMTITFVVSAQVIKIGGAQFEQNWPK
modifications: selenomethionine in place of methionine
stoichiometry N (crystal structure): 6

B2: Hcp1, untagged, co-expressed in E. coli BL21(DE3) (natural protein, Bacteroides fragilis NCTC9343, UniProt Q5LDT5 1-142, looked up)
chain: MFGHKSFLRIGALGDSSISGLYKDSYELENCHFSFNQGTNTDGKPQTDVRGGTLYLTYAGLPQDDMLRWILNSKKYEDGAIVICDDSDEPLEKILFEQAACTGLNIEYTQKGKAYIHTKIILQVRKIKVGETTFENRWTINE
stoichiometry N (Hcp2-His6): 2 Hcp1 per Hcp2 (printed as the ratio 4:2)
